{"source": "the DeepSol protein solubility set", "data": [{"test": "soluble on expression in E. coli; label from the status in PepcDB or PDB records", "values": [{"sequence": "ATDTGGYAATAGGNVTGAVSKTATSMQDIVNIIDAARLDANGKKVKGGAYPLVITYTGNEDSLINAAAANICGQWSKDPRGVEIKEFTKGITIIGANGSSANFGIWIKKSSDVVVQNMRIGYLPGGAKDGDMIRVDDSPNVWVDHNELFAANHECDGTPDNDTTFESAVDIKGASNTVTVSYNYIHGVKKVGLDGSSSSDTGRNITYHHNYYNDVNAKLPLQRGGLVHAYNNLYTNITGSGLNVRQNGQALIENNWFEKAINPVTSRYDGKNFGTWVLKGNNITKPADFSTYSITWTADTKPYVNADSWTSTGTFPTVAYNYSPVSAQCVKDKLPGYAGVGKNLATLTSTACK", "soluble on expression in E. coli": "soluble"}, {"sequence": "MGSQAAHMMSMDFEDFPVESAHRILTPRPTVMVTTVDEEGNINAAPFSFTMPVSIDPPVVAFASAPDHHTARNIESTHEFVINITPADIIERMWVTARDIPAGENELEAAGLAWTSSRRVKPPRIVEAPGHLECELLRMFEVGDHNLITGSVVSASVRSGAVKEGLLDVESVKPVLHVGGNKFVVGDHVRHVE", "soluble on expression in E. coli": "soluble"}, {"sequence": "SMSQIMYNYPAMLGHAGDMAGYAGTLQSLGAEIAVEQAALQSAWQGDTGITYQAWQAQWNQAMEDLVRAYHAMSSTHEANTMAMMARDTAEAAKWGG", "soluble on expression in E. coli": "soluble"}, {"sequence": "MAPVIRRAKEIDLYCLNSLMYKLHDEHHQQCPDLFKTASEIEEEKSIARYLDDPECMVYVAEMDDVIIGFITGHFCELISTVSKLVMMATIDELYIEKEYRREGVAEQLMMRIEQELKDYGVKEIFVEVWDFNKGALEFYNKQGLNEHIHYLRKPLNRLEHHHHHH", "soluble on expression in E. coli": "soluble"}, {"sequence": "MKLKIGIVCYPTVGGSGVVATELGKLLAERGHEIHFISSSMPFRLNKVYGNIYYHEVSVNQYSVFQYPPYDLALASKIAEVAKRERLDVLHAHYAVPHAVCAVLARQMVGELPIITTLHGTDITVLGYDPSLSDMIKFGIEQSDIVTAVSDALARQTYELLDVQATIHTVYNFVDERVYRRREAGHLRREYGIRDDERVVIHVSNFRKVKRVPDVVRAFAIVRRHVPAKLLLVGDGPEMTVVCRLVKELGLQDDVRFLGKQDKLEELYSISDVMMLLSEKESFGLVLLEAMACGVPCIGTAIGGIPEVIEDGKTGFLCPLGDVKEAARQAMALLTDCRLHAEMARQAVQTVERKFRSADIVGQYEQLYASLAARKVKR", "soluble on expression in E. coli": "not soluble"}, {"sequence": "MAHHHHHHMGQSKTKLQVVMCGLDNSGKTTIINQVKPAQSSSKHITATVGYNVETFEKGRVAFTVFDMGGAKKFRGLWETYYDNIDAVIFVVDSSDHLRLCVVKSEIQAMLKHEDIRRELPGGGRVPFLFFANKMDAAGAKTAAELVEILDLTTLMGDHPFVIFASNALKGTGVHEGFSWLQETASRQSGKAGTKRG", "soluble on expression in E. coli": "soluble"}, {"sequence": "MGSDKIHHHHHHMVVNALAVGCGLNVAPAQAHKFASNYHCFMVRRFDRTNAGRRLHFASAMTLTRHQDGEDASTGVSYLELADVLIRHGAQTNTDLKELWSRIVFNILVSNTDDHLRNHGYILIPGKGWRLSEAYDLNPVARSDGLKLNITENDNALDLELAREVAEYFRLGLTEADDIIANFRGIVSQWRIIAERLRLPGREQELMAEAFRGAI", "soluble on expression in E. coli": "not soluble"}, {"sequence": "QRKKAEEALRLSNIYNRSLIESSLDPLVTIGRDGKITDVNCATEQVTGYPRNDLIKTDFSDYFTEPENARAGYKQVFTDGEVRDYPLEIQHKDGHITPVLYNASVYRDENGEVIGVFAAARDIT", "soluble on expression in E. coli": "not soluble"}, {"sequence": "GNFYAVRKGRETGIYNTWNECKNQVDGYGGAIYKKFNSYEQAKSFLG", "soluble on expression in E. coli": "soluble"}, {"sequence": "MSLSGKIRVDIPPCLANSLIMPRLPTFLHQYPGIALELCSSDRQVDLLREDFDCVVRTEPLHAPGILTRPLGKLRRVNCASPQYLARFGYPENLDDLASHAMVHYSLTPGVSSPGFAFETPHGMQWVKTGGMLTVNSTETWHTACLAGLGIIQTPRIAVREALRAGTLIEILPQYRAAPLPVTLHYPHRRNLSRRVHLFMVWLTETIKEAAEGHHHHHH", "soluble on expression in E. coli": "not soluble"}, {"sequence": "MELVYMDGKKEPYTTSEIIAECAEVQHHTITRLIRENKADFEELGILGFKIHKLDTRGQPKKSYILNEQQATFLITYLKNTETVRQFKLNLVKAFFEMREELSEIRLQRALEKPKRKTLHDSIETWPNAPKHAHSTMNNLLLKAVTDMNAKQLREERGGYNGIDSLTSEELEQYQAFEDMAIAMIELKMSYQEIKTMMFRSKKIS", "soluble on expression in E. coli": "not soluble"}]}]}
